The results in this text go back to patent US20240350615A1 (BEIJING WANTAI BIOLOGICAL PHARMACY ENTERPRISE, published 2024).

The target in this test is T1, polypeptide 2C01 (human rhinovirus (W10 (HRV-C15))).
T1 construct: synthetic peptide coated on the ELISA plate; also called 2C (aa 151-163)
T1 peptide: YSLPPDPKYFDGY
As to the kind of experiment: indirect ELISA, peptide coated 1 ug/well, 9A5 at 2 ug/mL. (In general: ELISA stands for enzyme-linked immunosorbent assay.)

B1: monoclonal antibody 9A5 (antibody, V domains shown)
VH: EVQLVESGGDLVKPGGSLKLSCAASGFTFSIYGMSWVRQTPDKRLEWVATISSAGIYTYYPDSVKGRFTISRDNAKNTLYLQMSSLKSEDTAMYYCARHGYGLFDVWGAGTTVTVSS
VL: not shown
notes: also called anti-C149-2C01 mouse monoclonal antibody
With B1, the binding result is recorded as “binds”.
